Measurements: US4774321A, “DP100 EGF and insulin-binding protein from Drosophila cells” (Massachusetts Institute of Technology, priority 1986, dated 1988)
Where two headings read alike, the source gives them in different places. Blank lines part the entries; values can stand above or below the substance they belong to.

Columns and labels:
dp100 [1] = biological target: T1, dp100 (Drosophila melanogaster, UniProt P22817); assay: Affinity labelling of anti-EGF receptor immunoprecipitates (dp100) with 125I-labelled growth factors; assay type: binding; conditions: for affinity labelling (crosslinking) of dp100 by 125I-labelled ligand: disuccinimidyl suberate crosslinking, immunoprecipitates
T1 construct: detergent-solubilized membranes from Drosophila-cultured cell lines are immunoprecipitated with anti-EGF receptor antiserum; endogenous in cells; host or cells: Drosophila Schneider L2 and Kc cells (solubilized membrane or cytoplasmic protein, immunoprecipitated)
T1 sequence (P22817 1-990): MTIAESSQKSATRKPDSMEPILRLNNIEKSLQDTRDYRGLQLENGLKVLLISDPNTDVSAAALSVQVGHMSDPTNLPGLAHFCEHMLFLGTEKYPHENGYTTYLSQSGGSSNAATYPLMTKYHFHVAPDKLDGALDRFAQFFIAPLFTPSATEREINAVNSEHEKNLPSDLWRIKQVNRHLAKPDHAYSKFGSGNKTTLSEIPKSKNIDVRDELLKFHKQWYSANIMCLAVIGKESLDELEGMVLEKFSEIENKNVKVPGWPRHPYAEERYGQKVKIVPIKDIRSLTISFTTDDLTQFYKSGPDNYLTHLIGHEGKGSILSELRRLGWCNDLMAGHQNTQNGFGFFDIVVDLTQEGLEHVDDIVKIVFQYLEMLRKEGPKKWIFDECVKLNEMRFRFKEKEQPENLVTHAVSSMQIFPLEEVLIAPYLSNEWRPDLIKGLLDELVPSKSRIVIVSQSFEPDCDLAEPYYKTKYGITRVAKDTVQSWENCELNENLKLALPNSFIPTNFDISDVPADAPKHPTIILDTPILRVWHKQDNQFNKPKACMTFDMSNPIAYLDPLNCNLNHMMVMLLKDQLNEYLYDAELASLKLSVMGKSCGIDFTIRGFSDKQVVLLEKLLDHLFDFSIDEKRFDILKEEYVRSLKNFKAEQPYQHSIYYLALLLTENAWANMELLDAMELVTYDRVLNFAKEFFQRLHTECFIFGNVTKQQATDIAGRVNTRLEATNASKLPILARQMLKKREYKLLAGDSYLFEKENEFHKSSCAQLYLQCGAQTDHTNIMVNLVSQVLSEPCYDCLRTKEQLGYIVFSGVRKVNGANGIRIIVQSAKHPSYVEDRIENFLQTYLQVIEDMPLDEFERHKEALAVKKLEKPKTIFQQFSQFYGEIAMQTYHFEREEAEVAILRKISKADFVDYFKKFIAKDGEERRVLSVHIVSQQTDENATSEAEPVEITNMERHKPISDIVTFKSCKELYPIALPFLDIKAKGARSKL
Experimental: (§1) Affinity Labeling of Immunoprecipitates: The dp100 protein is found in the membranes and cytoplasm of the Drosophila cells. Membrane protein is solubilized in 1 to 2% Triton X-100, 10% glycerol, 50 mM Hepes, pH 7.0, for 60 min at 4° C. Typically, 500 microgram of Drosophila membrane protein or 100 microgram of Swiss 3T3 membrane protein are used per sample. Unsolubilized material is removed by centrifugation at 12,000 x g for 10 min. The solublized membrane protein or cytoplasmic protein is diluted 1:2 and precleared by incubation with protein A-Sepharose beads (Pharmacia Fine Chemical Co., Piscataway, NJ). The cleared supernatants are treated overnight with anti-EGF receptor antiserum (1:10 dilution), anti-insulin receptor antiserum (1:50), or rabbit preimmune serum (1:10), and the product precipitated with protein A-Sepharose beads. The immunopellets are washed three times with 50 mM Hepes, pH 7.0, 50 mM NaCl, 10% glycerol, 0.1% Triton X-100 and resuspended in 25 mM Hepes, 50 mM NaCl, 0.1% Triton X-100, 1 mg of bovine serum albumin per ml. 125I-EGF (35 nM) or 125I-insulin (20 nM) is added, and the samples incubated 60 min at 15° C. Binding specificity is tested by the simultaneous addition of a 1000-fold excess of unlabeled ligand (30 microM) and labeled ligand. Bound growth factor is crosslinked to the immunoprecipitates by addition of disuccinimidyl suberate to 0.4 mM and incubation for 15 min at 0° C. The samples are then centrifuged and the supernatant removed. The pellets are resuspended in sample buffer (33 mM Tris.HCl, pH 6.5, 2% NaDodS04, 10% glycerol, 0.1% bromophenol blue, 2% 2-mercaptoethanol) and boiled. The protein A-Sepharose beads are removed by centrifugation, and the supernatants run on 6.5% polyacrylamide/NaDodS04 gels.
To increase sensitivity of detection, detergent-solubilized membranes from Drosophila-cultured cell lines are immunoprecipitated with anti-EGF receptor antiserum, anti-insulin receptor antiserum, or rabbit preimmune serum prior to affinity labeling. Radiolabeled growth factors are added to the immune precipitates in the presence or absence of excess growth factor, allowed to bind at 15° C., and then crosslinked with disuccinimidyl suberate. Samples are analyzed by separation on NaDodSO4 /PAGE and subsequent autoradiography. […] However, the anti-EGF receptor antiserum does specifically immunoprecipitate dp100. Similar results are observed when membrane proteins from two different Drosophila cell lines, Schneider L2 and Kc, are analyzed.
Controls with preimmune serum fail to immunoprecipitate dp100 or any other growth factor binding protein.

dp100 [2] = biological target: T1, dp100; assay: Competitive affinity labelling of immunoprecipitated dp100 with 125I-insulin as label; assay type: binding; conditions: for Kd: competition with 125I-insulin
Experimental: as §1, with “The cleared supernatants are treated overnight with anti-EGF receptor antiserum (1:10 dilution), anti-insulin receptor antiserum (1:50), or rabbit preimmune serum (1:10), and the product precipitated with protein A-Sepharose beads.” left out, “125I-EGF (35 nM) or 125I-insulin (20 nM) is added, and the samples incubated 60 min at 15° C.” left out
To ensure linearity, several exposures are taken. Dissociation constants are determined by statistical analysis.
The dissociation constants ranged from 10^-6 M to 10^-9 M.

dp100 [3] = biological target: T1, dp100; assay: Affinity labelling of intact Drosophila membranes; assay type: binding
170 kDa EGF receptor = biological target: T2, 170 kDa EGF receptor (Mus musculus, UniProt Q01279); assay: Affinity labelling of EGF receptor immunoprecipitated from murine 3T3 fibroblast membranes; assay type: binding
T2 construct: 170 kDa EGF receptor immunoprecipitated from murine 3T3 fibroblast membranes; endogenous in cells; host or cells: Swiss 3T3 mouse fibroblasts (solubilized membranes, immunoprecipitated)
Experimental: as §1, with “Binding specificity is tested by the simultaneous addition of a 1000-fold excess of unlabeled ligand (30 microM) and labeled ligand. Bound growth factor is crosslinked to the immunoprecipitates by addition of disuccinimidyl suberate to 0.4 mM and incubation for 15 min at 0° C. The samples are then centrifuged and the supernatant removed. The pellets are resuspended in sample buffer (33 mM Tris.HCl, pH 6.5, 2% NaDodS04, 10% glycerol, 0.1% bromophenol blue, 2% 2-mercaptoethanol) and boiled. The protein A-Sepharose beads are removed by centrifugation, and the supernatants run on 6.5% polyacrylamide/NaDodS04 gels.” left out
The dp100 has a higher affinity for insulln than EGF. First, in crosslinking experiments with membranes, binding of ^125 I-insulin but not ^125 I-EGF is detected.

[4] = biological target: T3, EGF receptor in human epithelial carcinoma A431 cells (Homo sapiens, UniProt P00533); assay: Competition with 125I-EGF for binding to the EGF receptor in A431 cells; conditions: 4° C., 3 hr, FIG. 2
T3 construct: endogenous in cells; host or cells: A431 cells (American Type Culture Collection)
Experimental: FIG. 2 is a graph of the competitive binding of murine EGF and synthetic human TGF-alpha to the EGF receptor in A431 cells. ^125 I-EGF (10^5 cpm) was incubated with A431 cells (2×10^4 cells/well) at 4° C. for 3 hr in the presence of different M concentrations of unlabelled EGF ( ) or TGF-alpha ( ). The percent of binding as compared to the control is the mean of duplicate determinations with the error less than 10%.
Growth factor binding to A431 cells: A431 cells are grown in monolayer and ^125 I-labelled EGF bound to the cells as described by B. Friedman et al in Proc. Natl. Acad. Sci. U.S.A. 81, 3034-3039 (1984).
To ensure that the difference in the binding affinities of EGF and TGF-alpha for dp100 reflects a property of the protein rather than the particular growth factor preparations, the ability of unlabelled EGF and TGF-alpha to compete with ^125 I-labelled EGF for binding to the EGF receptor in human epithelial carcinoma A431 cells was determined.

[5] = densitometric scanning of autoradiograms, read-out: Dissociation constants for ligand binding to dp100, KD
[6] = read-out: dissociation constant (Kd) for binding to dp100

affinity labelling (crosslinking) of dp100 by 125I-labelled ligand (dp100 [1]): can be affinity labelled
blocking of 125I-insulin and 125I-EGF binding to dp100 by excess unlabeled ligand (dp100 [1]): can block binding
Kd (dp100 [2]; [5]): 1300 nM
affinity labelling by 125I-ligand after incubation with intact Drosophila membranes (dp100 [3]): is not detected
blocking of 125I-EGF affinity labeling of the murine EGF receptor by excess ligand (170 kDa EGF receptor; excess unlabeled ligand): can be blocked by excess EGF
crosslinking of 125I-ligand to the 170 kDa EGF receptor (170 kDa EGF receptor; immunoprecipitated by anti-EGF receptor antiserum): can be crosslinked
affinity for the mammalian EGF receptor, EGF versus TGF-alpha preparations [4]: no significant difference
Substance: EGF: murine epidermal growth factor, receptor grade and HPLC purified
affinity for dp100 compared with recombinant TGF-alpha (dp100 [2]; FIG. 3): within the same order of magnitude as the recombinant form

Substance: IGF-I: insulin-like growth factor-I (Amgen)
affinity labelling (crosslinking) of dp100 by 125I-labelled ligand (dp100 [1]): can be affinity labelled
Kd (dp100 [2]; [5]): 500 nM

Substance: INSULIN: porcine insulin from Biomedical Technologies Inc.
inhibition of 125I-insulin and 125I-EGF binding to dp100, comparison of unlabeled ligands (dp100 [1]; competition with unlabeled ligand): more effective than EGF
affinity labelling (crosslinking) of dp100 by 125I-labelled ligand (dp100 [1]): can be affinity labelled
blocking of 125I-insulin and 125I-EGF binding to dp100 by excess unlabeled ligand (dp100 [1]): can block binding
affinity labelling by 125I-ligand after incubation with intact Drosophila membranes (dp100 [3]): can be detected

Kd (dp100 [2]; [6]): > 1000 nM
Substance: NGF: Nerve growth factor

Substance: PDGF
affinity labelling (crosslinking) of dp100 by 125I-labelled ligand (dp100 [1]): neither ^125 I-TGF-beta nor ^125 I-PDGF, two structurally unrelated growth factors, can be crosslinked

affinity labelling (crosslinking) of dp100 by 125I-labelled ligand (dp100 [1]): can be affinity labelled
affinity for dp100 relative to that for EGF (dp100 [2]): three orders of magnitude higher
affinity for dp100 relative to human recombinant TGF-alpha (dp100 [2]; FIG. 3): 100-1000 times
Kd (dp100 [2]; [5]): 5 nM
Kd (dp100 [2]; [6]): 5 nM
affinity for the mammalian EGF receptor, EGF versus TGF-alpha preparations [4]: no significant difference
Substance: TGF-alpha: Synthetic human transforming growth factor-alpha, synthesized chemically (J. Tam, Rockefeller University)

Substance: TGF-beta: 125I-TGF-beta, structurally unrelated growth factor
affinity labelling (crosslinking) of dp100 by 125I-labelled ligand (dp100 [1]): neither ^125 I-TGF-beta nor ^125 I-PDGF, two structurally unrelated growth factors, can be crosslinked

Substance: glucagon: glucagon (Sigma Chemical Co.)
Kd (dp100 [2]; [6]): > 1000 nM

Substance: native TGF-alpha: native transforming growth factor-alpha
affinity for dp100 compared with recombinant TGF-alpha (dp100 [2]; FIG. 3): within the same order of magnitude as the recombinant form
